{
  "source": "patent US9907791B2",
  "about": "“Ron inhibitors for use in preventing and treating bone loss” (UNIVERSITY OF UTAH RESEARCH FOUNDATION, priority 2014, dated 2018)",
  "molecules": {"B1": {"name": "muRANK-Fc: murine RANKL antagonist (Amgen) (protein)", "chain": "VTPPCTQERHYEHLGRCCSRCEPGKYLSSKCTPTSDSVCLPCGPDEYLDTWNEEDKCLLHKVCDAGKALVAVDPGNHTAPRRCACTAGYHWNSDCECCRRNTECAPGFGAQHPLQLNKDTVCTPCLLGFFSDVFSSTDKCKPWTNCTLLGKLEAHQGTTESDVVCSSSMTLRRPPKEAQAYLPS", "modifications": "left off: a dimerising Fc or GST"}},
  "key": {"[1]": {"system": "PyMT-MSP tumor cells", "assay": "Intratibial PyMT-MSP tumor-induced osteolysis", "format": "in vivo, mice", "source_text": "All procedures involving mice and experimental protocols were approved by the Institutional Animal Care and Use Committee (IACUC) of the University of Utah. The RonTK−/− mice which reside on the FVB background, were crossed with NOD.SCID mice for an immune-compromised mouse model. As a control, wild-type FVB mice were also crossed with NOD.SCID mice. The STK−/− mice, which are on a C57BL/6 background, were compared to wild-type C57BL/6 mice as controls. Mice for all experiments were 6 to 8 weeks of age. For intratibial injections, 1×10^5 (PyMTor DU4475) or 3×10^5 (MDA-MB-231) tumor cells were resuspended in 10 μL matrigel and injected into the right tibia of anesthetized female FVB (PyMT) or NOD.SCID mice carrying various alleles of RON. Osteolysis was assessed by X-ray radiography. Dissected hindlimbs from mice sacrificed at the final time point in each experiment were placed in the Kodak In-vivo Multispectral Imaging System FX and exposed to X-ray radiography at 35 kV for 100 sec. Excess tumor tissue was removed from the bones prior to X-ray. Osteolytic lesions were quantified using Image J software (NCBI). All images were compared to the contralateral leg as an internal control.\nHindlimb bones were excised from mice at the time of sacrifice and bones were fixed in 10% neutral-buffered formalin, decalcified in Formical-2000 (Decal Corporation, Tallman, N.Y.) for 8 days and embedded in paraffin for hematoxylin and eosin (H & E) or immunohistochemical staining. Osteoclast number was assessed as TRAP^+ multinucleated cells containing 4 or more nuclei and reported as TRAP^+ cells per field. Three sections per mouse and 5 fields per section were used for quantification with fields representing the entire length of the tibia. Tumor proliferation rate was reported as the number of cells which were positive for phospho-H3 staining compared to the number of unstained cells per field expressed as a percent. Three sections per mouse and 5 fields per section were used for quantification with analysis being restricted to within the bone marrow cavity. […]"}, "[2]": {"system": "bone marrow osteoclasts", "assay": "Osteoclast resorption assay", "format": "cell-based, mice", "settings": "WT osteoclasts, inhibitors 10 μM or muRANK-Fc 10 μg/mL daily day 9 to 12", "procedure": "Bone marrow osteoclasts were generated from 6 to 8 week old WT and RonTK−/− mice. Briefly, bone marrow was isolated from hindlimb bones and plated in α-MEM media containing 10% heat-inactivated fetal bovine serum (FBS, Sigma, St. Louis, Mo.), 100 units/mL penicillin-streptomycin (Hyclone), and 33 ng/mL human macrophage colony-stimulating factor (hM-CSF) (PeproTech, Rocky Hill, N.J.) for 24 hours. Non-adherent cells were collected and frozen for later use. To assess resorption activity, bone marrow precursor cells were thawed and seeded at a density of 1×10^5 cells per well in BioCoat Osteologic slides (BD Biosciences, San Jose, Calif.) in α-MEM media containing 10% FBS and antibiotics. After adhering overnight, media was removed and media containing 33 ng/mL hM-CSF and 9 ng/mL muRANKL (R & D systems, Minneapolis, Minn.) was added. The medium was changed every 3 days depending on acidification, and the assay was terminated as indicated. Recombinant human MSP was prepared and added daily as indicated. Cells were removed with 6% bleach and slides were viewed microscopically using phase-contrast with 20× magnification. Osteolytic resorption area within 5 representative fields was determined using Image J software, experiments were performed in triplicate. Recombinant MSP was prepared as follows (to be described in detail elsewhere): Concentrated, serum-free media from an MCF7 cell line engineered to overexpress MSP was cleaved with kallikrein (Invitrogen, Waltham, Mass.; 4 ng of kallikrein/1 μg of supernatant protein at 37° C. for 2.5 hours). The reaction was diluted to 20 mL with 10 mM sodium phosphate, pH 7.4 and loaded onto a 5 mL HiTrap heparin column (Millipore, Billerica, Mass.) equilibrated with 20 mL of 10 mM sodium phosphate, pH 7.4, at a rate of 1 mL/min. The column was washed with 10 mL of 10 mM sodium phosphate, pH 7.4, at a rate of 1 mL/min. […]"}},
  "data": [
    {"molecule": "B1", "values": [
      {"measurement": "MSP-driven osteolysis in Ron TK−/− mice", "setting": "[1]; Ron TK−/− mice, treatment began 3 days post tumor cell injection", "value": "did not reduce this further"},
      {"measurement": "TRAP+ osteoclasts in tumor-bearing bones", "setting": "[1]; TRAP staining of bone sections", "value": "lack of TRAP+ cells"},
      {"measurement": "osteolysis from PyMT-MSP tumors", "setting": "[1]; WT mice, treatment began 3 days post tumor cell injection", "value": "significant osteolysis even in the presence of the RANKL antagonist"},
      {"measurement": "MSP-induced increase in osteoclast resorption (resorption area)", "setting": "[2]", "value": "only slightly reduced"}
    ]}
  ]
}
